Biological target: T1, human BACE2 (Homo sapiens, UniProt Q9Y5Z0)
T1 construct: the extracellular domain of human BACE2 enzyme (5 nM)
T1 sequence (Q9Y5Z0 63-473 limits assumed): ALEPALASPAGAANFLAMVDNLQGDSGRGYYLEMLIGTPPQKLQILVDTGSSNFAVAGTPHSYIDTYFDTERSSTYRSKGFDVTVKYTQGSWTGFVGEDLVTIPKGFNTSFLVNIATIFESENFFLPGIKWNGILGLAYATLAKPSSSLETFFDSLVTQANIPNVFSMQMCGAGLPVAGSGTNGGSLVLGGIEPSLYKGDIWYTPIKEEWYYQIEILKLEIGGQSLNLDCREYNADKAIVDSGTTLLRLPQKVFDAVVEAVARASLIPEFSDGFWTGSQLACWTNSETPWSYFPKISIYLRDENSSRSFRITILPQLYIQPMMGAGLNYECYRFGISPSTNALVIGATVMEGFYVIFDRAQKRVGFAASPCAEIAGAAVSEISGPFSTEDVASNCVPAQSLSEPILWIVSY
Assay: MCE assay, BACE2
Type: biochemical
Description: The MCE assay reactions were carried out in a final volume of 20 μL per well in a 384-well microplate. A standard enzymatic reaction, initiated by the addition of 10 μL 2× substrate to 5 μL of 4× enzyme and […] of 4× compound, containing 12 nM human BACE1 extracellular domain, […] amyloid precursor protein beta secretase active site peptide (FAM-[…]-CONH2 (SEQ ID NO:55)), 50 mM NaOAc pH 4.4 and 0.1% CHAPS. The same reaction conditions were used for the extracellular domain of human BACE2 enzyme (5 nM) and the extracellular domain of Cathepsin D (6 nM, Calbiochem®). After incubation for 60 minutes at ambient temperature, the product and substrate in each reaction were separated using a 12-sipper microfluidic chip analyzed on an LC3000® (both, Caliper Life Sciences). The separation of product and substrate was optimized by choosing voltages and pressure using the manufacturer's optimization software. The separate buffer contained 100 mM HEPES pH 7.2, 0.015% Brij-35, 0.1% coating reagent #3, 10 mM EDTA and 5% DMSO. The separation conditions used a downstream voltage of −500V, an upstream voltage of −2250V and a screening pressure of −1.2 psi. The product and substrate fluorescence was excited at a wavelength of 488 nm and detected at a wavelength of 530 nm. Substrate conversion was calculated from the electropherogram using HTS Well Analyzer software (Caliper Life Sciences).

B1: YW412.8.31: affinity matured form of YW412.8 anti-BACE1 antibody (antibody, V domains shown)
VH: EVQLVESGGGLVQPGGSLRLSCAASGFTFLGYGIHWVRQAPGKGLEWVGWISPAGGSTDYADSVKGRFTISADTSKNTAYLQMNSLRAEDTAVYYCARGPFSPWVMDYWGQGTLVTVSS
VL: DIQMTQSPSSLSASVGDRVTITCRASQDVSTAVAWYQQKPGKAPKLLIYSASFLYSGVPSRFSGSGSGTDFTLTISSLQPEDFATYYCQQFPTYLPTFGQGTKVEIK
inhibition of human BACE2: did not inhibit

From patent US9879094B2, “Nucleic acid molecules encoding for BACE1 antibodies” (Genentech, Inc., priority 2010, dated 2018)
